In patent publication US20150166671A1 (CHILDREN S MEDICAL CENTER, published 2015):

T1: recombinant human WNT3A, P56704
T1 chain: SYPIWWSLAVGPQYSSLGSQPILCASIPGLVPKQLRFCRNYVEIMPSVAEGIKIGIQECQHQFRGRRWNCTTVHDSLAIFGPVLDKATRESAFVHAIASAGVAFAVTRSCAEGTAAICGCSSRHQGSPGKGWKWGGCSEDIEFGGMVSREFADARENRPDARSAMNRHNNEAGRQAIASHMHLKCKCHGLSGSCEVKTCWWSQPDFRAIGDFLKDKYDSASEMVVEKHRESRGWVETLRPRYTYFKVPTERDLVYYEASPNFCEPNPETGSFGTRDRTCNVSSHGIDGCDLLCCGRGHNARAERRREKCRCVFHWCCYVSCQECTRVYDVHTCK

T2: KRM2N-FLAG-6xHIS (human, UniProt Q8NCW0 26-364)
T2 construct: extracellular domain; Negative control; also called human Kremen2; not shown: carboxyl FLAG tag and 6xHIS tag
T2 sequence (looked up): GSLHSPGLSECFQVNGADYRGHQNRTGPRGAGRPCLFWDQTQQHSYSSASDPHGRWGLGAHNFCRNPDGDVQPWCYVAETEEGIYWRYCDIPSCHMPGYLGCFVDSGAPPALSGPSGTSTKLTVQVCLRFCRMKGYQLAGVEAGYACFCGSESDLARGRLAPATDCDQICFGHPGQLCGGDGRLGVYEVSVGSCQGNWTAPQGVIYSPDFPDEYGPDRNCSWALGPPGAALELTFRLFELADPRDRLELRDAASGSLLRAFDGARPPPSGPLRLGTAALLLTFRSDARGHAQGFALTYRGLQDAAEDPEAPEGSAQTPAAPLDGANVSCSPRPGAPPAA


Key:
[1] = biological target: T1, recombinant human WNT3A, P56704
KRM2N-FLAG-6xHIS = biological target: T2, KRM2N-FLAG-6xHIS; test: co-immunoprecipitation from CM with an anti-FLAG antibody, Western blotting
From the text: (Y-BB) TIKI2, but not KRM2, interacts with Wnt3a, Xwnt8-Myc, Wnt5a, and Xwnt11. Wnt proteins were each co-expressed with KRM2N or TIKI2N (FLAG tagged) and CM were subjected to immunoprecipitation with an anti-FLAG antibody and Western blotting with indicated antibodies.
The rabbit polyclonal anti-LRP6 antibody has been described (Tamai et al., 2004). Other antibodies were used according to manufacturer's instructions. From Cell Signaling: the rabbit monoclonal anti-Wnt3a (#2721, 1:1000), anti-HA (#3724, 1:1000), anti-Wnt5a (#2530, 1:1000) and anti-FLAG (#8146, 1:2000), from Santa Cruz: anti-Dv12 (sc-13974, 1:1000), anti-HA (sc-7392, 1:1000), and anti-Myc (sc-40, 1:500), from BD Transduction Laboratories: anti-beta-catenin (610154, 1:2000), From Hybridoma Bank: anti-tubulin (E7, 1:5000). Anti-FLAG M2 (A2220) and anti-HA (A2095) Affinity gels are from Sigma Immunoblotting was performed as previously described (MacDonald et al., 2008). For indirect immunofluorescence experiments, HeLa cells were plated on glass coverslips in 12-well plates and transfected with HA*Tiki1 expression construct. To visualize Tiki1 proteins on the cell surface, live cells were incubated with the anti-HA antibody in the culture medium for 30 min. The coverslip was washed with PBS and fixed with 4% paraformaldehyde in PBS for 10 min at room temperature. […]

| Binder | in vitro cleavage of purified HA-Wnt3a by purified protein (Western blotting) (HA-Wnt3a) | in vitro cleavage, mass spectrometry [1] | binding result (KRM2N-FLAG-6xHIS) |
| --- | --- | --- | --- |
| TIKI2N-FLAG-6xHIS (protein) RPQPPDGGQCRPPGSQRDLNSFLWTIRRDPPAYLFGTIHVPYTRVWDFIPDNSKAAFQASTRVYFELDLTDPYTISALASCQLLPHGENLQDVLPHELYWRLKRHLDYVKLMMPSWMTPAQRGKGLYADYLFNAIAGNWERKRPVWVMLMVNSLTERDVRFRGVPVLDLYLAQQAEKMKKTTGAVEQVEEQCHPLNNGLNFSQVLFALNQTLLQQESVRAGSLQASYTTEDLIKHYNCGDLSAVIFNHDTSQLPNFINTTLPPHEQVTAQEIDSYFRQELIYKRNERMGKRVMALLRENEDKICFFAFGAGHFLGNNTVIDILRQAGLEVDHTPAGQAIHSPAPQSPAPSPEGTSTSPAPVTPAAAVPEAPSVTPTAPPEDEDPALSPHLLLPDSLSQLEEFGRQRKWHKRQSTHQRPRQFNDLWVRIEDSTTASPPPLPLQPTHSSGTAKPPFQLSDQLQQQDPPG | upon in vitro incubation with purified HA-Wnt3a, triggered Wnt3a cleavage and the disappearance of the HA epitope | MS analyses of recombinant human WNT3A cleaved by TIKI2N in vitro indicated cleavage at identical (major and minor) amino terminal sites as observed in cells |  |
| TIKI2NΔ-FLAG-6xHIS (protein) RPQPPDGGQCRPPGSQRDLNSFLWTIRRDPPAYLFGTIHVPYTRVWDFIPDNSKAAFQASTRVYFELDLTDPYTISALASCQLLPHGENLQDVLPHELYWRLKRHLDYVKLMMPSWMTPAQRGKGLYADYLFNAIAGNWERKRPVWVMLMVNSLTERDVRFRGVPVLDLYLAQQAEKMKKTTGAVEQVEEQCHPLNNGLNFSQVLFALNQTLLQQESVRAGSLQASYTTEDLIKHYNCGDLSAVIFNHDTSQLPNFINTTLPPHEQVTAQEIDSYFRQELIYKRNERMGKRVMALLRENEDKICFFAFGAGHFLGNNTVIDILRQAGLEVDHTPAGQAIHSPAPQSPAPSPEGTSTSPAPVTPAAAVPEAPSVTPTAPPEDEDPALSPHLLLPDSLSQLEEFGRQRKWHKRQSTHQRPRQFNDLWVRIEDSTTASPPPLPLQPTHSSGTAKPPFQLSDQLQQQDPPG | failed to do so in the in vitro assay |  |  |
| Xwnt8-Myc (ligand, also called Xenopus wnt8; not shown: Myc tag) AWSVNNFLMTGPKAYLTYSASVAVGAQNGIEECKYQFAWERWNCPESTLQLATHNGLRSATRETSFVHAISSAGVMYTLTRNCSMGDFDNCGCDDSRNGRIGGRGWVWGGCSDNAEFGERISKLFVDGLETGQDARALMNLHNNEAGRLAVKETMKRTCKCHGISGSCSIQTCWLQLAEFRDIGNHLKIKHDQALKLEMDKRKMRSGNSADNRGAIADAFSSVAGSELIFLEDSPDYCLKNISLGLQGTEGRECLQSGKNLSQWERRSCKRLCTDCGLRVEEKKTEIISSCNCKFHWCCTVKCEQCKQVVIKHFCARRERDSNMLNTKRKNRGHRR |  |  | no binding |
| Xwnt11 (ligand, Xenopus, UniProt P49893 23-353, looked up) IQWLGLTVNGSRVAWNESEHCRLLDGLVPDQSQLCKRNLELMQSVVNAAKQTKLTCQMTLSDMRWNCSSVENAPSFTPDLSKGTRESAFVYALASATLSHTIARACASGELPTCSCGATPAEVPGTGFRWGGCGDNLHYGLNMGSAFVDAPMKSSKSAGTQATKIMNLHNNAVGRQVLMDSLETKCKCHGVSGSCSVKTCWKGLQDLPHIANELKSKYLGATKVIHRQTGTRRQLVPRELDIRPVRESELVYLVSSPDYCTKNPKLGSYGTQDRLCNKTSVGSDSCNLMCCGRGYNAYTETIVERCQCKYHWCCYVMCKKCERTVERYVCK |  |  | no binding |
